This passage reports Km, kcat and kcat/Km results from PMC10251306.

Substrate in the data set: O=P(O)(O)OC[C@H]1O[C@H](OP(=O)(O)O)[C@H](O)[C@@H](O)[C@@H]1O
Description: phosphatase activity, BioMol Green phosphate assay. It counts as biochemical, Homo sapiens. The settings on record: without IMP, 100 mM Hepes pH 7.2, 2 mM MgCl2, 2 mM β-mercaptoethanol.

B1: PMM1 (α-PMM1) (Homo sapiens) (protein)
chain: MAVTAQAARRKERVLCLFDVDGTLTPARQKIDPEVAAFLQKLRSRVQIGVVGGSDYCKIAEQLGDGDEVIEKFDYVFAENGTVQYKHGRLLSKQTIQNHLGEELLQDLINFCLSYMALLRLPKKRGTFIEFRNGMLNISPIGRSCTLEERIEFSELDKKEKIREKFVEALKTEFAGKGLRFSRGGMISFDVFPEGWDKRYCLDSLDQDSFDTIHFFGNETSPGGNDFEIFADPRTVGHSVVSPQDTVQRCREIFFPETAHEA
With B1, the Km came out at 18 ± 3.4 µM, the kcat is 0.018 ± 0.0012 s⁻¹ and the kcat/Km was determined as 1000 M⁻¹ s⁻¹.

As a reminder, the Km is the substrate concentration at which the rate is half of its maximum. The term kcat denotes the number of substrate molecules converted per active site and unit of time at saturation. In general, kcat/Km refers to the turnover number divided by the Michaelis constant.
